In paper PMC6078970, “Nonequilibrium self-assembly dynamics of icosahedral viral capsids packaging genome or polyelectrolyte” (Nature Communications, 2018):

Molecular target: the molecule itself
Test: SAXS (static); purified subunits alone, pH 7.5, ionic strength 0.5 M; radius of gyration 33 Å

B1: cowpea chlorotic mottle virus (CCMV) capsid protein, dimeric subunit (natural protein)
chain: RVVQPVIVEPIASGQGKAIKAWTGYSVSKWTASCAAAEAKVTSAITISLPNELSSERNKQLKVGRVLLWLGLLPSVSGTVKSCVTETQTTAAASFQVALAVADNSKDVVAAMYPEAFKGITLEQLTADLTIYLYSSAALTEGDVIVHLEVEHVRPTFDDSFTPVY
notes: capsid (coat) protein of cowpea chlorotic mottle virus, extracted from purified virions; 90 dimers make the T = 3 capsid; Protein as it stands in native virions; no tag; also called CCMV subunits; subunits; source: CCMV grown in blackeye cowpea leaves; capsid proteins extracted from purified virions (dialysis against 0.5 M CaCl2, centrifugation at 150,000 x g)
In the case of B1, the “stoichiometry N” value is reported as 2.
